Test results as given in patent US20210214447A1 (SHANGHAI INSTITUTE OF MATERIA MEDICA CHINESE ACADEMY OF …, published 2021).
Where “and” joins values, the source holds several entries; their conditions need not be identical. Equal entries are not always repeated. Where two headings read alike, the source gives them in different places.

Legend:
[1] = molecular target: T1, extracellular domain of human AXL protein (AXL-ECD) (human, UniProt P30530 31-449); assay: ELISA, plate-coated AXL-ECD
T1 construct: expressed in HEK293T cells; coated on the ELISA plate; also called AXL-ECD protein; human AXL extracellular domain protein
T1 sequence: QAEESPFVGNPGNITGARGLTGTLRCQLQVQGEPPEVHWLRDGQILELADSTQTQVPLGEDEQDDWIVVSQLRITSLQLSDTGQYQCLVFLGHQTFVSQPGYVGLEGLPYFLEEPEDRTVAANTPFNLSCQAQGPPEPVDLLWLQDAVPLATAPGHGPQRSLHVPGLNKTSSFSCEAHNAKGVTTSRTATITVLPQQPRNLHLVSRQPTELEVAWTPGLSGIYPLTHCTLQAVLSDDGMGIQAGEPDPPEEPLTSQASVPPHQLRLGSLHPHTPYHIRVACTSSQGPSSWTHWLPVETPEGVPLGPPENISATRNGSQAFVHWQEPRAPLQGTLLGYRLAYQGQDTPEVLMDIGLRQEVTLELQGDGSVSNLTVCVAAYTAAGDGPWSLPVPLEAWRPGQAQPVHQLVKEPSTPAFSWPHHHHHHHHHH
Description: (§1) The extracellular domain of AXL protein (AXL-ECD) was diluted to […] with the coating solution, and coated onto ELISA plate with 100 μL/well at 4° C. overnight. The excess antigen was washed off. The plate was blocked with 1% BSA at room temperature for 2 h, then each monoclonal antibody in a 3-fold dilution was added at 100 µL/well. The plate was incubated at room temperature for 1 h; the unbound antibody was washed off, and appropriate concentration of anti-mouse secondary antibody labeled with horseradish peroxidase was added at 100 µL/well. The plate was incubated at room temperature for 0.5 h. The unbound secondary antibody was washed off. TMB Substrate was added and reacted for about 15 minutes. 1N HCL was added at 50 µL/well to stop the color reaction. Then the absorbance was measured at 450 nm and the obtained data was analyzed.
24 humanized antibodies in Table-6 were diluted by gradient, and their affinity to AXL-ECD protein was determined by ELISA. The experimental method was referred to Example 4.

[2] = molecular target: T2, human AXL on the surface of tumor cells (human, UniProt P30530 26-894); assay: FACS, 5 ug/mL antibody, NCI-H1299 cells compared with AXL-low MDA-MB-453 cells
T2 construct: whole, on cells; endogenous protein of human tumor cell lines; the cell line is named under assay or readout; also called AXL on the cell surface
T2 sequence (looked up): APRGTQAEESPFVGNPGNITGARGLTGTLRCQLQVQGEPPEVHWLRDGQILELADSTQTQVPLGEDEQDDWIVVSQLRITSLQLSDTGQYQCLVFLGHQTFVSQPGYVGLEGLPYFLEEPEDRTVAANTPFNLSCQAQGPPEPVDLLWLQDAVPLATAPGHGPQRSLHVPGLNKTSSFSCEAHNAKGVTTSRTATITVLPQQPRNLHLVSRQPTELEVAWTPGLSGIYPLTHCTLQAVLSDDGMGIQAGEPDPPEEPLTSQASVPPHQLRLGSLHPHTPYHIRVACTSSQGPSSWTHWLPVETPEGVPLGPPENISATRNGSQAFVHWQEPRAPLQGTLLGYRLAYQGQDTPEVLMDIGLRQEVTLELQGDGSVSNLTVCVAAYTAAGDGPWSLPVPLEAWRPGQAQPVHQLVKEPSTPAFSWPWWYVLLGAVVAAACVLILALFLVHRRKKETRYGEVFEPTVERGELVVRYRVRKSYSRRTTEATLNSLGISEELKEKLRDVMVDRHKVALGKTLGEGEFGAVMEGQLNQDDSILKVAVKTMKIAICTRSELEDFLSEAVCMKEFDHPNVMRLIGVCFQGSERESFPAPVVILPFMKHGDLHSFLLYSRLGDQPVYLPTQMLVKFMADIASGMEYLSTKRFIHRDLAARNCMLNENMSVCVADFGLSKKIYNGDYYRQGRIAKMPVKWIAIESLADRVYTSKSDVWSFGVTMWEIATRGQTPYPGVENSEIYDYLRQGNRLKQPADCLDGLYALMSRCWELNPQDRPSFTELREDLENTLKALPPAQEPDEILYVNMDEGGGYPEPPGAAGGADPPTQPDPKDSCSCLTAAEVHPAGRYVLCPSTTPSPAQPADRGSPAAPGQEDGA
Description: (§2) 3×10⁵ tumor cells were mixed well with the antibody (final concentration was 5 μg/mL), and then incubated at 4° C. for 1 hour. The cells were washed twice with PBS to remove unbound primary antibody. Then 200 μL ([…]) PE-labeled secondary antibody was added and incubated at 4° C. for 30 min. The cells were washed twice with PBS to remove unbound secondary antibodies. Finally, the cells were resuspended in 200 μL PBS. The Binding affinity of the tested antibody to AXL on the cell surface or the overall binding fluorescence intensity (MFI) of different tumor cells at the same antibody concentration was determined with a flow cytometer (FACSCalibur).
(§3) The chimeric antibody mAb002c could specifically recognize and bind tumor cells with AXL high expression.

[3] = molecular target: T2, human AXL on the surface of tumor cells; assay: FACS on MDA-MB-231 cells
Description: (§4) Then the obtained solutions were incubated at 4° C. for 1 h, the cells were washed twice with PBS to remove unbound primary antibody, and then the target cells were incubated with 200 μL PE-labeled secondary antibody (2 μg/mL) at 4° C. for 30 min. The cells were washed twice with PBS to remove unbound secondary antibody. Finally, the cells were resuspended in 200 μL PBS, and the binding affinity of the test antibody to AXL on the cell surface was determined by a flow cytometer (FACSCalibur)
24 humanized antibodies in Table-6 were diluted by gradient, and their affinities to AXL, on the surface of MDA-MB-231 cells were determined by flow cytometer. The experimental method was referred to Example 8.

[4] = molecular target: T2, human AXL on the surface of tumor cells; assay: FACS, 5 ug/mL antibody, LCLC-103H cells compared with AXL-low MDA-MB-453 cells
Description: as §2, §3

[5] = molecular target: T2, human AXL on the surface of tumor cells; assay: FACS on MDA-MB-231 cells, mean EC50
Description: as §4

[6] = molecular target: T2, human AXL on the surface of tumor cells; assay: FACS on MDA-MB-231 cells; remark: listed apart in the source
Description: as §4

[7] = molecular target: T1, extracellular domain of human AXL …; assay: ELISA, plate-coated AXL-ECD; remark: listed apart in the source
Description: as §1

[8] = molecular target: T2, human AXL on the surface of tumor cells; assay: FACS on NCI-H1299 cells
Description: as §4
AXL-high-expression lung cancer cells NCI-H1299 were used as target cells. 100 μL of the test antibody diluted in a 3-fold gradient was used as primary antibody, and mixed with 1×10⁵ NCI-H1299 cells suspended in 100 μL RPMI-1640 serum-free medium. The operation method was the same as above. Finally, the cells were resuspended in 200 μL PBS, and the binding affinity of the tested antibody to AXL on the cell surface was determined by a flow cytometer (FACSAria II).

EC50 [1]: 0.082 nM and 0.076 nM
fold difference of binding rate (MFI) against MDA-MB-453 cells [2]: 127 times
EC50 [3]: 0.16 nM and 0.169 nM
fold difference of binding rate (MFI) against MDA-MB-453 cells [4]: 91 times
EC50 [5]: 0.174 nM
Highest MFI value (FACSCalibur) [6]: 242 MFI
EC50 [7]: 0.073 nM
Highest reading (OD450 nm) [7]: 3.79 OD450 nm
EC50 [8]: 0.456 nM
Highest MFI value (FACSAria II) [8]: 2260 MFI
B1: mAb002c (antibody, V domains shown)
VH: QIQLQQSGPELVKPGASVKISCKASGYPFTDFYINWVKQKPGQGLEWIGWIYPGSGNTKYNEKFKGKATLTVDTSSSTAYMQLSSLTSEDTAVYFCARSTGFFDYWGQGTTLTVSS
VL: QIVLTQSPALMSASPGEKVTMTCSASSSIGYMYWYQQKPRSSPKSWIYLTSNLASGVPARFSGSGSGTSYSLTISSMEAEDAATYYCQQWSSNPPTFGAGTKLELK
notes: also called human-mouse chimeric antibody mAb002c
